Target: taxol-stabilized microtubules (porcine brain tubulin) (porcine) (UniProt P02550)
Assay: co-sedimentation

| Substance | Kd [µM] |
| --- | --- |
| chick Fmn2 FH2FSI (1148th-1587th aa) (from UniProt A0A1B2VWD2 1148-1587) (domain or fragment) | 1.6 |
| chick Fmn2 FH2_ΔFSI (1148th-1563rd aa) (from UniProt A0A1B2VWD2 1148-1563) (domain or fragment) | 18.6 |

Reference: paper doi:10.1101/2020.01.18.911131
